Laboratory results taken from the domain aggregation screens of Martell et al. (2025).

Assay: soluble fraction after stress (log2 fold change); higher = more stays soluble; pooled small domains, quantitative proteomics
Details: stress: pH 4
How it was run: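 Values are log2 fold changes, and higher ones mean more of the domain stayed soluble. Each fold change reflects the soluble amount of a domain after acid stress and is taken as a measure of aggregation propensity. The stress was pH 4, applied to pooled custom libraries of small protein domains analysed by high-throughput quantitative proteomics.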

Sequence	soluble fraction (log2)
HMLKQLGRQEGRQEGAVDALRTVLALQIEQRFGPLDPTVQALIVAADIDALQRALSRVAVVSDLGAVFPP	-0.862
HMLKRLTVEFSAEMPKKMTSEQKEELASVLSEDPRPAYQNDENREYGLDYGEFSVKFKVKDGVLTVTSVTE	0.226
HMLLNLSPIETQVLRLIQQDKKVTYESIGKELTIGQTKVYKVLGHLKELNVIERIGGRTYGHWHILL	-0.599
HMLLNPFERLTERELEIADLYAKGYGNLEIANFLSIKQNTVSTYKKRIFEKLGIDNLVELIELIKNY	-0.839
HMLLQTRQRHEALAALGYFKGDVAAAWGPASEEALRAAQAAFGITVDGKWGPQTEDAIQGALQV	-0.701
HMLLREKLESVLPFISVSALAKTYFKRSPQWFYQRLNGSIVNGKPIRFNDAELKTLAGALTDIGKKISQAA	0.157
HMLLSEPSVLKFNDDNSYEIVSGFLTEYKDKIVKIERRYKKATVKITVAGEEKEIKVSFVEDTE	-1.13
HMLLSTHVVVAKEDVQIGTRLQPAMLQVVDWPSASPLKNPLTSIEQATDRVVNMPLVKGEPISMSKLAAKG	0.0815
HMLLTASNYFKETKGINFSELPEALQKGHSFVIKSTENGTNWNAYSTSQNIQRVIDAYFSKLDEYLEKNQ	-0.202
HMLLTHEEQIVKRGWQAPVGPFAILDSRAEAMHGDLEMLRGDREAAEQHFRRAWQIIGPIVEQ	0.0572
HMLMKILTDALEKMSPEELKELAEATGVKNTSSITPETMVGVFQAVFRVGGFKSYQLTLIIVNAVLKA	-0.398
HMLMRKAEVGVESLNLRHGPGTQYKVLEILPGGKSLHYLAEPRRGWVRVTTEEGTTGWTFLKFLKPE	-0.0205
HMLNENNHGEWSIRMSNGLVVRLGRDELNRSLRRSIMAYAGLAPNYRSSIEYIDARYLGGVALKTF	-0.159
HMLNKRQAEILAEVSRLKEITPSELYKLQPNVSSRTLRRDMDVLVNKGLVSQDGSTKSTKYTYL	0.102
HMLNMTLGDRIRSRREELRMSQEELATRLGYKSRSTIAKIESGENDLTQSKIVAFAEALSTTARWLLDY	0.0651
HMLNVNDVIARNVRAARERKKLTLDGAAELTGVSRSMLAQIEKGEVNPTISVVWKIANGFKVSFTSLVEPQ	-0.0104
HMLPAGSDAILRYLSSGAVKGIGVATAARIVEKFGDETLRILEEEPGRLAEIKGITAAKAKAIGEAFAGQ	-0.143
HMLPELIVTTKKGVTVTVTNGVITYSATSNGKATFTVPNYGKWTVSATINGTVISKVVDVTEAKQIPVLLG	-0.318
HMLPERIQTIVALIGHGRAMDLVREFGGQEIKFPAQEGNDTWAALVEVIGEAATRKLAAVFGGGQAPPVYI	-0.593

Sequence	soluble fraction (log2)
HMLPGVPVVAGKTQSAATRILKAAGYAVSVVREEAFDGVTGTVLRTSPEAGSPLAPGSRVTLVVLQVV	-0.114
HMLPGWMETKFTANVSENTKNRTLEEHVLKMLNNKESAAEFIIFLHEKMMSVSGQVFQLDSR	-0.0998
HMLPIGSSREQVISSLNKMHQDYKEEGNFIYAGYFKQGLPLVPSPRISIALQFNETAHLEKIDATLNYV	-0.467
HMLPKLAEEYAIMEIRGKGENLTAKLINKGGDSFMVRNGTVLQTGHRIDEITQTYVRAEINGMKDYLYFA	-1.44
HMLPLLAFDEKLNRLGYGGGFYDRTLASLAHKGNTITAIGIAYESQKMDKVPTGYFDRPLDGVLTPSGLIM	-0.0764
HMLPNLWVMGPGDHLWRVAEVAMTKHLGRPVANHEIDGYWRRLVALNRESLIDPDNPDLVFAGQVIELPPF	-2.2
HMLPQGKGTAMWLADHLAAASVTLDAGARKLLEDTLGEDMSRLPGVLRVLEATFGSDAGRLSAEDIEPFL	-1.05
HMLPRNKRIEIALTYIYGLGRHAATVVLKHANISPDKRTDDLDENDVRKLRDAIDANFRVEGDLRR	-0.0555
HMLPTVSITGHIFIRSGSPLNRIFVGEKIYHVGDHIDRDWVIESIGIDTLTIRSGTLSTQLPL	0.034
HMLPVFNYQVYRTHGLIYVYAKDNDSFDQIARSMGFKAKQLMKFNEVPEDFPLQAGDIVYLEKKKK	-0.368
HMLPVLEIGTMIRIIRQPHFGTIARVVALPEELTKVESETLVRILDAEFDDGTRVRIPRANVEVIE	-1.37
HMLPYGDRRRHTDNTISRIRELAAALDDSGIADRLNQDGYVTPEGKPFTYAGVRWIRYKYDISGPYERN	-0.364
HMLQKVELSDNEKFIFDSLQKEQKMALLRLKELVNLSNKAWDVSVKNLTKQGLVKVTKIDEELLIEI	-1.24
HMLQPQMKKFLNYESARNKMRPFGLSTRKEWRLFVDEGNRPADIPGDPYKKYKNKGWISWPHFLGK	0.0515
HMLRDTTLLHIDSIVRDGSTAMANITVRDEGTDLEFPLQLRMERGDMGWQVVRIVNYRAYLEAVQKA	-0.59
HMLRGKNALMSQLDQIQGIGPKRKRALFNHFLTLDAIKQADVETLRQAPGMNLPAAEQVYRHFHM	0.144
HMLRIIDYNRVVKDLNGLTPEQLLEKLAESFTVEDKGTEEYRPTELHNFSMYLGGHWYSLTAKPGTYDDND	-0.926
HMLRMTRNRQKLVEVLMESGRPLSADEIREAAGFASTDLVTVYRNLEAFQSAGLLQRIPLENGSQLFELT	-0.269
